Data as given in article PMC3706957, “Ion Mobility Spectrometry-Mass Spectrometry of Intrinsically Unfolded Proteins: Trying to Put Order into Disorder” (Current Analytical Chemistry, 2013).
Bridge positions count the residues as written; N and C are the ends. Square brackets hold non-standard residues; d marks the D form. Ends that are not written are not given here. Gla = N[C@@H](CC(C(=O)O)C(=O)O)C(=O)O

What was measured:
[1] = molecular target: osteocalcin_(17-49) proteolysis fragment (bovine); assay: native MS; ESI-IMS-MS of the limited proteolysis mixture of full length calcium-bound holo-osteocalcin at neutral pH (enzyme:substrate 1:300, ammonium acetate); dimer seen as 6+ ions in the drift time distribution of the 3+ ions
[2] = molecular target: the molecule itself; assay: native MS; ESI-IMS-MS (nanoESI, travelling wave ion mobility), pH 7, 20 mM ammonium acetate (methods) or 1:1 5 mM ammonium acetate: ammonium formate; protein alone and with Ca^2+, Cu^+ or Zn^2+ salt at protein:salt 1:10; dimer told apart from monomer by drift time and isotope pattern; dimer peak increased significantly with metal ions

Row | stoichiometry N [1] | Molecule | stoichiometry N [2]
1 | 2 | osteocalcin_(17-49) proteolysis fragment (domain or fragment) | –
2 | – | YLDHWLGAPAPYPDPL[Gla]PKR[Gla]VC[Gla]LNPDCDELADHIGFQEAYRRFYGPV (natural protein, UniProt P02820 52-100, looked up, disulfide 23-29, also called apo-osteocalcin; apo-OST; source: purified from bovine bone tissue (EDTA extraction, size exclusion and ion exchange chromatography)) [bovine osteocalcin] | 2
